Measured values: US12416034B2, “Recombinant production of steviol glycosides” (EVOLVA SA, priority 2011, dated 2025)

How the values were obtained:
EUGT11 = assay: Inhibition studies of RebD production; type: biochemical, Oryza sativa; conditions: Steviva 500 μg/ml, UDP 500 μM; around 30 μM without any addition
Description: Experiments were conducted to determine if factors such as sucrose, fructose, UDP, product (RebD) and impurities in the less pure Stevia extracts raw materials inhibited the extent of the conversion of steviol glycoside substrates to RebD. In a standard reaction mixture, excess of the potential inhibitors (sucrose, fructose, UDP, RebD, or a commercial blend of steviol glycosides (Steviva, Steviva Brands, Inc., Portland, OR)) were added. Following incubation, RebD-production was quantified. […] The RebD that was produced was less than 7 μM. This inhibition can be alleviated in the in vivo or in vitro reactions for RebD production, by including an UDP recycling system to UDP-glucose, either by yeast or by an added SUS (sucrose synthase enzyme) in conjunction with sucrose.

[1] = Denaturation temperature by differential scanning calorimetry (DSC); type: physicochemical; conditions: 6HIS-purified enzymes, 91D2e-b GST-purified
Description: To assess the thermal stability of EUGT11 and to compare it with the other UGTs in the steviol glycosylation pathway, denaturation temperatures of the proteins were determined using differential scanning calorimetry (DSC). Use of DSC thermograms to estimate denaturation temperatures, TD, is described, for example, by E. Freire in Methods in Molecular Biology 1995, Vol. 40 191-218. DSC was performed (using 6HIS-purified EUGT11, yielding an apparent TD of 39° C.; while when GST-purified 91D2e-b was used, the measured TD was 79° C. For reference, the measured TD when using 6HIS-purified UGT74G1, UGT76G1 and UGT85C2 was 86° C. in all cases. One of skill in the art will recognize that enzyme immobilization or addition of thermal protectants can be added to the reactions to improve stability of the protein. Non-limiting examples of thermal protectants include trehalose, glycerol, ammonium sulphate, betaine, trimethylamine oxide, and proteins.

[2] = test system: S. cerevisiae strain BY4741; assay: Steviol-feeding experiment of S. cerevisiae strain BY4741; type: cell-based; conditions: co-expressed with wild type UGT74G1, steviol feeding
Description: Further experiments were conducted to determine if the codon-optimized UGT85C2 could reduce 19-SMG accumulation and increase rubusoside and higher glycosylated steviol glycosides production. The production of 19-SMG and rubusoside were analysed in a steviol-feeding experiment of S. cerevisiae strain BY4741 expressing the wild type UGT74G1 as well as the codon-optimized UGT85C2 from high copy (2p) vectors under strong constitutive promoter (GPD1) (vectors P426-GPD and P423-GPD, respectively). Whole culture samples (without cell removal) were taken and boiled in an equal volume of DMSO for total glycosides levels. Intracellular concentrations reported were obtained by pelleting cells, and resuspending in 50% DMSO to the volume of the original culture sample taken, followed by boiling. The “total” glycosides level and the normalized intracellular level then were measured using LC-MS. Using wild type UGT74G1 and wild type UGT85C2, approximately 13.5 μM rubusoside was produced in total with a maximum normalized intracellular concentration of about 7 μM. In contrast, when wild type UGT74G1 and codon-optimized UGT85C2 were used, a maximum of 26 μM rubusoside was produced, or approximately double of what was produced using the wild type UGT85C2. Additionally, the maximum normalized intracellular concentration of rubusoside was 13 μM, again an approximate doubling of what was produced using wild type UGT85C2. […] Consequently, about 10 μM less total 19-SMG was measured for the codon-optimized UGT85C2.

[3] = Codon optimized UGT cell lysate assay, steviol as substrate; type: biochemical; conditions: 0.25 mM steviol, 24 hours, 30° C.
Description: (§1) The wild-type, DNA 2.0, and GeneArt sequences were assayed for in vitro activity to compare reactivity on substrates in the steviol glycosides pathway. UGTs were inserted in high copy (2p) vectors and expressed from a strong constitutive promoter (GPD1) (vectors P423-GPD, P424-GPD, P425-GPD, and P426-GPD). The plasmids were transformed individually into the universal Watchmaker strain, EFSC301 (described in Example 3 of WO2011/153378) and assays were carried out using cell lysates prepared from equal amount of cells (8 OD units). For the enzymatic reactions, 6 μL of each cell lysate were incubated in a 30 μL reaction with 0.25 mM steviol (final concentration) to test UGT74G1 and UGT85C2 clones, and with 0.25 mM 13-SMG (13SMG) (final concentration) to test 76G1 and 91D2e UGTs. Assays were carried out for 24 hours at 30° C. Prior to LC-MS analysis, one volume of 100% DMSO was added to each reaction, samples were centrifuged at 16000 g, and the supernatants analysed.

[4] = In vitro transcribed and translated UGTs incubated with steviol, LC-MS; type: biochemical
Description: (§2) EUGT11 was produced by in vitro transcription and translation, and incubated with various substrates in the RebD pathway. Similar experiments were carried out using in vitro transcribed and translated UGT91D2e. […] Compounds 1-3 were identified solely by mass and expected retention time. The numbers shown in FIG. 3 are the average peak height of the indicated steviol glycoside obtained from a LC-MS chromatogram, and, although not quantitative, can be used to compare the activity of the two enzymes. […] Both enzymes were able to convert steviol 19-O-monoglucoside (SMG) to compound 1, with EUGT11 being about ten times more efficient than UGT91D2e at converting 19-SMG to compound 1.

[5] = Screening by LC-MS of E. coli lysates, rebaudioside A as substrate; type: biochemical; conditions: RebA substrate
Description: (§3) To analyze the approximately 1600 mutant clones of UGT91D2e, the E. coli transformants were grown overnight at 30° C. in 1 ml of NZCYM containing ampicillin (100 mg/1) and chloramphenicol (33 mg/1), in 96-well format. The next day, 150 μl of each culture was inoculated into 3 ml NZCYM containing ampicillin (100 mg/1), chloramphenicol (33 mg/1), arabinose 3 mM, IPTG 0.1 mM and ethanol 2% v/v, in 24-well format, and incubated at 20° C. and 200 rpm for ˜20 h. The following day, cells were spun down and pellets were resuspended in 100 μl of lysis buffer containing 10 mM Tris-HCl pH 8, 5 mM MgCl2, 1 mM CaCl2) and complete mini protease inhibitor EDTA-free (3 tablets/100 ml) (Hoffmann-La Roche, Basel, Switzerland) and frozen −80° C. for at least 15 minutes to promote cell lysis. […] In each case, the resulting compounds, stevioside or rebaudioside D (rebD), were measured by LC-MS. Results were analyzed in comparison with the stevioside or rebD produced by the lysates expressing the corresponding controls (91D2e, 91D2e-b, EUGT11 and the empty plasmid). […]
(§4) Half of the 1600 clones and the corresponding controls were assayed for their capacity to glycosylate rubusoside and rebaudiosideA. Stevioside and RebD were quantified by LC-MS. […]

[6] = In vitro transcribed and translated UGTs incubated with RebA and UDP-glucose, LC-MS; type: biochemical; conditions: LC-MS chromatograms, FIG. 4
Description: In vitro transcription and translation of these genes was performed, and the resulting UGTs incubated with RebA and UDP-glucose. Following incubation, the reactions were analyzed by LC-MS. […] See LC-MS chromatograms in FIG. 4. As shown in the left panel of FIG. 4, UGT91D2e produced a trace amount of RebD when RebA was used as the feedstock.
as §2
Both enzymes were able to convert RebA to RebD. However, EUGT11 was approximately 30 times better at converting RebA to RebD. Overall, it appears that EUGT11 produces more product than UGT91D2e in all reactions (with similar time, concentrations, temperature, and purity of enzyme) except the conversion of rubusoside to stevioside.

[7] = In vitro transcribed and translated UGTs incubated with rubusoside, LC-MS; type: biochemical
Description: as §2
The left panel of FIG. 5 contains LC-MS chromatograms of the conversion of rubusoside to stevioside. The right panel of FIG. 5 contains chromatograms of the conversion of rubusoside to stevioside, to compound 2, and to compound 3 (RebE). Conversion of rubusoside to compound 3 requires two consecutive 1, 2-O-glycosylations at the 19- and 13-positions of steviol.

[8] = Codon optimized UGT cell lysate assay, 13-SMG as substrate; type: biochemical; conditions: 0.25 mM 13-SMG, 24 hours, 30° C.
Description: as §1

[9] = Screening by LC-MS of E. coli lysates, rubusoside as substrate; type: biochemical
Description: as §3, §4

O=c1ccn([C@@H]2O[C@H](COP(=O)(O)OP(=O)(O)O)[C@@H](O)[C@H]2O)c(=O)[nH]1 [UDP]
RebD production in presence of potential inhibitor (EUGT11): less than 7 μM

B1: UGT85C2: S. rebaudiana UGT, SEQ ID NO:3 (protein, listed as Stevia rebaudiana)
chain: MDAMATTEKKPHVIFIPFPAQSHIKAMLKLAQLLHHKGLQITFVNTDFIHNQFLESSGPHCLDGAPGFRFETIPDGVSHSPEASIPIRESLLRSIETNFLDRFIDLVTKLPDPPTCIISDGFLSVFTIDAAKKLGIPVMMYWTLAACGFMGFYHIHSLIEKGFAPLKDASYLTNGYLDTVIDWVPGMEGIRLKDFPLDWSTDLNDKVLMFTTEAPQRSHKVSHHIFHTFDELEPSIIKTLSLRYNHIYTIGPLQLLLDQIPEEKKQTGITSLHGYSLVKEEPECFQWLQSKEPNSVVYVNFGSTTVMSLEDMTEFGWGLANSNHYFLWIIRSNLVIGENAVLPPELEEHIKKRGFIASWCSQEKVLKHPSVGGFLTHCGWGSTIESLSAGVPMICWPYSWDQLTNCRYICKEWEVGLEMGTKVKRDEVKRLVQELMGEGGHKMRNKAKDWKEKARIAIAPNGSSSLNIDKMVKEITVLARN
denaturation temperature TD [1]: 86 °C | maximum intracellular concentration of 19-SMG [2]: 35 µM | maximum normalized intracellular concentration of rubusoside [2]: about 7 μM | rubusoside produced in total [2]: approximately 13.5 μM | activity of GeneArt lysate as a percentage of the wild-type enzyme [3]: 340%

B2: UGT91D2e: UGT91D2e polypeptide from Stevia rebaudiana, SEQ ID NO:5 (protein, listed as Stevia rebaudiana)
chain: MATSDSIVDDRKQLHVATFPWLAFGHILPYLQLSKLIAEKGHKVSFLSTTRNIQRLSSHISPLINVVQLTLPRVQELPEDAEATTDVHPEDIPYLKKASDGLQPEVTRFLEQHSPDWIIYDYTHYWLPSIAASLGISRAHFSVTTPWAIAYMGPSADAMINGSDGRTTVEDLTTPPKWFPFPTKVCWRKHDLARLVPYKAPGISDGYRMGLVLKGSDCLLSKCYHEFGTQWLPLLETLHQVPVVPVGLLPPEIPGDEKDETWVSIKKWLDGKQKGSVVYVALGSEVLVSQTEVVELALGLELSGLPFVWAYRKPKGPAKSDSVELPDGFVERTRDRGLVWTSWAPQLRILSHESVCGFLTHCGSGSIVEGLMFGHPLIMLPIFGDQPLNARLLEDKQVGIEIPRNEEDGCLTKESVARSLRSVVVEKEGEIYKANARELSKIYNDTKVEKEYVSQFVDYLEKNARAVAIDHES
use of steviol as a substrate [4]: not able to use steviol as a substrate | RebD formed by lysates [5]: ~1 µM | amount of RebD produced when RebA was used as the feedstock [6]: trace amount | amount of compound 3 (RebE) produced from rubusoside [7]: trace amount | activity of GeneArt lysate as a percentage of the wild-type enzyme [8]: 130% | stevioside formed by lysates [9]: approximately 0.5 μM

B3: UGT76G1: S. rebaudiana UGT, SEQ ID NO:7 (protein, listed as Stevia rebaudiana)
chain: MENKTETTVRRRRRIILFPVPFQGHINPILQLANVLYSKGFSITIFHTNFNKPKTSNYPHFTFRFILDNDPQDERISNLPTHGPLAGMRIPIINEHGADELRRELELLMLASEEDEEVSCLITDALWYFAQSVADSLNLRRLVLMTSSLFNFHAHVSLPQFDELGYLDPDDKTRLEEQASGFPMLKVKDIKSAYSNWQILKEILGKMIKQTKASSGVIWNSFKELEESELETVIREIPAPSFLIPLPKHLTASSSSLLDHDRTVFQWLDQQPPSSVLYVSFGSTSEVDEKDFLEIARGLVDSKQSFLWVVRPGFVKGSTWVEPLPDGFLGERGRIVKWVPQQEVLAHGAIGAFWTHSGWNSTLESVCEGVPMIFSDFGLDQPLNARYMSDVLKVGVYLENGWERGEIANAIRRVMVDEEGEYIRQNARVLKQKADVSLMKGGSSYESLESLVSYISSL
denaturation temperature TD [1]: 86 °C | activity of GeneArt lysate as a percentage of the wild-type enzyme [8]: 170%
